Patent publication US20200247886A1 (ZLIP, published 2020)
Positions count from the first letter of the chain named. One block for each binder: values may come before it.

Key:
[1] = target: T1, human CD47 expressed on cells (CD47 expressing CHO cells, Jurkat, HL60, DLD1, Raji) (human, UniProt Q08722 19-292); assay: flow cytometry on human platelets, MFI
T1 construct: also called CHO-CD47; IAP

[2] = target: T1, human CD47 expressed on cells (CD47 …); assay: flow cytometry on human red blood cells, MFI
CHO/mCD47-GFP = target: T2, CHO/mCD47-GFP (mouse, UniProt Q61735); assay: flow cytometry on CHO cells expressing mouse CD47-GFP, binding percentage
T2 construct: on the cell surface; also called mouse CD47 expressed on CHO cells; CHO cell expressing mouse CD47
T2 sequence (receptor, looked up): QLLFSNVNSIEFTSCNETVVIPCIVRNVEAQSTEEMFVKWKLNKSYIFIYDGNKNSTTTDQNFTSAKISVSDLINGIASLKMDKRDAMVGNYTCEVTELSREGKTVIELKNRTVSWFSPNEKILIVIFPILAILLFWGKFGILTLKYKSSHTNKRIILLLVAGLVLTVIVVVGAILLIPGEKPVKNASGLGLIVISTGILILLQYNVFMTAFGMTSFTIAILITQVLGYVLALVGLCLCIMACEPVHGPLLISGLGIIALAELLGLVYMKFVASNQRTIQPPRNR

[3] = target: T1, human CD47 expressed on cells (CD47 …); assay: flow cytometry on CD47 expressing CHO cells, MFI (FL-4)
CD47 on monkey RBC = target: T3, CD47 on monkey RBC (Macaca fascicularis, UniProt A0A2K5X523); assay: flow cytometry on cynomolgus monkey red blood cells expressing CD47, MFI
T3 construct: native, on red blood cells; also called cynomolgus monkey red blood cells expressing CD47

[4] = target: T1, human CD47 expressed on cells (CD47 …); assay: flow cytometry on DLD1 cells, IgG, MFI
[5] = target: T1, human CD47 expressed on cells (CD47 …); assay: flow cytometry on DLD1 cells, IgG, frequency
[6] = target: T1, human CD47 expressed on cells (CD47 …); assay: flow cytometry on human platelets, donor 1, MFI
[7] = target: T1, human CD47 expressed on cells (CD47 …); assay: flow cytometry on human platelets, donor 2, MFI
[8] = target: T1, human CD47 expressed on cells (CD47 …); assay: flow cytometry on human red blood cells, donor 1, MFI
[9] = target: T1, human CD47 expressed on cells (CD47 …); assay: flow cytometry on human red blood cells, donor 2, MFI
[10] = target: T4, CD47 protein (construct not stated; SPR antigen, CD47 coated ELISA plates) (Homo sapiens (Human), UniProt Q08722 19-139, limits assumed); assay: ELISA on CD47, OD450 against Log[M]; column headed KD beside the legend
T4 construct: also called the antigen

[11] = target: T1, human CD47 expressed on cells (CD47 …); assay: IC50 as grade, SIRPα blocking on Raji cells; legend +++: <1 nM
[12] = target: T1, human CD47 expressed on cells (CD47 …); assay: flow cytometry blocking assay on Raji cells, SIRPα is the blocked ligand, MFI
[13] = target: T1, human CD47 expressed on cells (CD47 …); assay: flow cytometry SIRP-alpha blocking assay on Raji cells, MFI

- EC50 (read off the curve) [1]: ~2 nM
- EC50 (read off the curve) [2]: ~4 nM
B1: H-ABU10-IgG4-P (antibody)
light chain: DIVMTQSPDSLAVSLGERATINCKSSQSLVSSSQKNYLAWYQQKPGQPPKLLIYWASVRDSGVPDRFSGSGSGTDFTLTISSLQAEDVAVYYCQQYYSYPLTFGQGTKVEIK
heavy chain: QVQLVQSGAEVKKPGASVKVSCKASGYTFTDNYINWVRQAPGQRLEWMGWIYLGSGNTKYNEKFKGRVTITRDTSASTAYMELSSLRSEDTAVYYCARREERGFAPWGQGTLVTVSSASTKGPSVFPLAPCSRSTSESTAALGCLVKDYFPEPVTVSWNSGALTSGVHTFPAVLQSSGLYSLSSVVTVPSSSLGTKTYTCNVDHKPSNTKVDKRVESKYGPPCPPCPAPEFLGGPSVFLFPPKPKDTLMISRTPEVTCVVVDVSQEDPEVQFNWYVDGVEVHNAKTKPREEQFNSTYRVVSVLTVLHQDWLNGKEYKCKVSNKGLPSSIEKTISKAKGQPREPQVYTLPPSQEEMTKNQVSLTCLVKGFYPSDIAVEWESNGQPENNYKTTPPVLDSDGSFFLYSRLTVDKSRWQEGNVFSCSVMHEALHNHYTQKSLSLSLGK

- EC50 (read off the curve) [1]: ~2 nM
- EC50 (read off the curve) [2]: ~4 nM
B2: H-ABU10-IgG4-PE (antibody)
light chain: B1 light chain
heavy chain: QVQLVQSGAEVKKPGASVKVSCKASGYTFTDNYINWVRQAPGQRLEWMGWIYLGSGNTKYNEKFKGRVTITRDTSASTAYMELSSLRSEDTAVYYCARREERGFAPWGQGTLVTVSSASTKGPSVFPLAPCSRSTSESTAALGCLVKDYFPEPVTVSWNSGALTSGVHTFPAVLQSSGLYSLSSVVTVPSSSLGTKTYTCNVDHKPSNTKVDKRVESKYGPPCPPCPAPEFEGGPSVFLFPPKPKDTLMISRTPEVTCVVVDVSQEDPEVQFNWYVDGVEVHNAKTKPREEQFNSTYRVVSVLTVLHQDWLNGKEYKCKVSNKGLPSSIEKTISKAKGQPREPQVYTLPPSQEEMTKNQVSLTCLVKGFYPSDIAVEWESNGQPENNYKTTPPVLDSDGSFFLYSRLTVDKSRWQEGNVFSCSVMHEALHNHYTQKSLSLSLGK

- binding result (CHO/mCD47-GFP): no binding (tested: about 0.4 ug/ml)
B3: ABU7 (antibody, V domains shown)
VH: EVQLQQSGPELVKPGASVKISCKASGYSFTGYYMNWVKQSPEKSLEWIGEINPSTGGTTYNQKFKAKATLTVDKSSSTAYMQLKSLTFEDSAVYYCAIYDGYEGFAYWGQGTLVTVSA
VL: DIKMTQSPSSMYASLGERVTITCKASQDIKSYLSWYQQKPWKSPKTLIYYATSLADGVPSRFSGSGSGQHYSLTISSLESDDTATYYCLQHGESPFTFGSGTKLEIK
notes: Murine hybridoma monoclonal antibody

- EC50 (read off the curve) [3]: ~1 nM
B4: C-ABU4 (antibody, human IgG4 S228P, kappa, V domains shown)
VH: QVQLQQSGPQLVRPGASVKISCKTSGYSFTNYWMQWVKQRPGQGLEWIGMIDPSDSESRLNQKFKDKATLTVDKSSSTAYMQLSSPTFEDSAVYYCARRGSPMITSFAYWGQGTLVTVSA
VL: DVQITQSPSFLAASPGETITINCRASKNIGKYLAWFQEKPGKTNKLLIYSGSTLQSGIPSRFSGSGSGTDFTLTISSLEPEDFAIYYCQQHNEYPYTFGGGTKLEIKR
notes: Human chimeric IgG4 antibody

- EC50 (read off the curve) [1]: ~2 nM
- EC50 (read off the curve) [2]: ~4 nM
- EC50 (read off the curve) (CD47 on monkey RBC): ~0.2 µg/mL
B5: Positive 3-IgG4-P (antibody)
heavy chain: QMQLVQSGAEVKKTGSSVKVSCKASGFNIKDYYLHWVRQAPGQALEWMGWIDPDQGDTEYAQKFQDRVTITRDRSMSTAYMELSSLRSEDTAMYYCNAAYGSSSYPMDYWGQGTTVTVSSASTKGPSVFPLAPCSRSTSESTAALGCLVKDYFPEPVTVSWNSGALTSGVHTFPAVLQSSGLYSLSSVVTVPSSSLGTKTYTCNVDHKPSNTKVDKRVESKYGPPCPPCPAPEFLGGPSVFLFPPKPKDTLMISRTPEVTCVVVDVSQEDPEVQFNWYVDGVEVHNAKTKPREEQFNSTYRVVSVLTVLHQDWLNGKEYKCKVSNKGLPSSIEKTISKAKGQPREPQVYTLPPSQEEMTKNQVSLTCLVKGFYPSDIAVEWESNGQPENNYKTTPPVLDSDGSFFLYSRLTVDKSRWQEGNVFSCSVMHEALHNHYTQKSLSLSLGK
light chain: QMTQSPSAMSASVGDRVTITCKASQDIHRYLSWFQQKPGKVPKHLIYRANRLVSGVPSRFSGSGSGTEFTLTISSLQPEDFATYYCLQYDEFPYTFGGGTKVEIKRTVAAPSVFIFPPSDEQLKSGTASVVCLLNNFYPREAKVQWKVDNALQSGNSQESVTEQDSKDSTYSLSSTLTLSKADYEKHKVYACEVTHQGLSSPVTKSFNRGEC

- EC50 (read off the curve) [1]: ~2 nM
- EC50 (read off the curve) [2]: ~4 nM
- EC50 (read off the curve) (CD47 on monkey RBC): ~0.1 µg/mL
B6: Positive 3-IgG4-PE (antibody)
heavy chain: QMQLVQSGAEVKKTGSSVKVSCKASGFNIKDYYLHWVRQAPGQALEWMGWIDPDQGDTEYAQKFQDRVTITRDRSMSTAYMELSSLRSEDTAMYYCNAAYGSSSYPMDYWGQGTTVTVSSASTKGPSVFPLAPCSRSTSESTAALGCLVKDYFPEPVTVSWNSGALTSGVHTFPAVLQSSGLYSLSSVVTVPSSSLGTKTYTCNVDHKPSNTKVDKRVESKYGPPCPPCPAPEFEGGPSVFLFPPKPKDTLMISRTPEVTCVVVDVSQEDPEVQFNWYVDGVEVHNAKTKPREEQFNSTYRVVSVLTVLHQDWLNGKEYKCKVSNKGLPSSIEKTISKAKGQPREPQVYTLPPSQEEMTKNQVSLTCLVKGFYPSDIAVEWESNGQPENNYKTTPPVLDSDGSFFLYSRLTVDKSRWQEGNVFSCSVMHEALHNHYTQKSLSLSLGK
light chain: B5 light chain

- EC50 (read off the curve) [4]: ~4 nM
- EC50 (read off the curve) [5]: ~0.4 nM
B7: ABU16 (IgG) (antibody, V domains shown)
VH: RVQLQQSGAELVRPGTSVKVSCKASAYAFTNYLIEWVKKRPGQGLEWIGVINPGSGGTNYNEKFKGKATLTADKSSSTAYMQLSSLTSEDSAVYFCARGDGYGSLFAYWGQGTLVTVSA
VL: RHCFNQSPAIMSASPGEKVTMTCSASSSVSYMHWYQQKSGTSPKRWIYDTSNLASGVPVRFSGSGSGTSYSLTISRMEAEDAATYYCQQWSNYPFTFGSGTKLELK

- EC50 (read off the curve) [6]: ~0.1 nM
- EC50 (read off the curve) [7]: ~0.1 nM
- EC50 (read off the curve) [8]: ~0.2 nM
- EC50 (read off the curve) [9]: ~0.2 nM
B8: H-ABU44 (antibody, V domains shown)
VH: QVQLVQSGAEVKKPGASVKVSCKASGYSFTNYHIHWVRQAPGQRLEWIGWIYPGSGNTKYNEKFKGRATLTADTSASTAYMELSSLRSEDTAVYYCARYDYDLYLHSWGQGTLVTVSS
VL: DIQITQSPSSVSASVGDRVTITCHASQNINVWLSWYQQKPGKAPKLLIYKASNLHTGVPSRFSGSGSGTGFTLTISSLQPEDFATYYCQQGQSYPLTFGQGTKLEIK

- Kd [10]: 1.3 nM
B9: H-ABU2b (antibody, V domains shown)
VH: QVQLVQSGAEVKKPGASVKVSCKASGYTFTDFYINWVRQAPGQRLEWMGWIYLGSGNTKYNEKFKGRVTITVDTSASTAYMELSSLRSEDTAVYYCARREERGFAYWGQGTLVTVSS
VL: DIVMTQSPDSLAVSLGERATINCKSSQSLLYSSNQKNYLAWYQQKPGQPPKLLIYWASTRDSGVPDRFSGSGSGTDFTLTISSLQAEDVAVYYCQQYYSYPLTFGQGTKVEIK

- IC50 [11]: < 1 nM
- IC50 (read off the curve) [12]: ~0.4 nM
B10: H-ABU 6 (antibody, V domains shown)
VH: B9 VH with V72R
VL: B1 light chain with V30L, S33N, Y96F

- Kd [10]: 1.5 nM
B11: H-ABU2c (antibody, V domains shown)
VH: B9 VH with A24V
VL: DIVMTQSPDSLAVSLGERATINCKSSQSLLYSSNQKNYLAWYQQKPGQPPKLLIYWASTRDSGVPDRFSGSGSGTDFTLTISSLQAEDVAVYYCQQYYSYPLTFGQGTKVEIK

- Kd [10]: 1.6 nM
B12: H-ABU2a (antibody, V domains shown)
VH: B9 VH with V72R
VL: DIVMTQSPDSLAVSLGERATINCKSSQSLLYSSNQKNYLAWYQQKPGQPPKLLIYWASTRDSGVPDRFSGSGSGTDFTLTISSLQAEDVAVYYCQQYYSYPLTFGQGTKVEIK

- IC50 [11]: < 1 nM
- IC50 (read off the curve) [12]: ~0.3 nM
B13: H-ABU 4 (antibody, V domains shown)
VH: B9 VH with F32I, T58V, V72R, E101D
VL: B1 light chain with V30L, S33N, N36Y, V58T, Y96F

- EC50 (read off the curve) [7]: ~0.6 nM
- IC50 [11]: < 1 nM
- EC50 (read off the curve) [8]: ~1 nM
- EC50 (read off the curve) [9]: ~1 nM
- IC50 (read off the curve) [12]: ~0.09 nM
B14: H-ABU 7 (antibody, V domains shown)
VH: B9 VH with F32H, V72R, E101D
VL: B1 light chain with V30L

- IC50 (read off the curve) [13]: ~0.3 nM
B15: H-ABU 39 (antibody, V domains shown)
VH: QVQLVQSGAEVKKPGASVKVSCKTSGYSFTNYWMQWVRQAPGQGLEWIGMIDPSDSESRLNQKFKDRATLTVDTSTSTAYMELSSLRSEDTAVYYCARRGSPMITSFAYWGQGTLVTVSS
VL: DVQITQSPSSLSASVGDRVTITCRASKNIGKYLAWFQQKPGKTNKLLIYSGSTLQSGIPSRFSGSGSGTDFTLTISSLQPEDFATYYCQQHNEYPYTFGGGTKVEIK
notes: Humanized antibody

- EC50 (read off the curve) [6]: ~0.6 nM
- EC50 (read off the curve) [7]: ~0.6 nM
- EC50 (read off the curve) [8]: ~1 nM
- EC50 (read off the curve) [9]: ~1 nM
- IC50 (read off the curve) [13]: ~0.3 nM
B16: H-ABU 43 (antibody, V domains shown)
VH: B15 VH with I48M, A68V, L70M, V72R
VL: B15 VL
notes: Humanized antibody

- EC50 (read off the curve) [6]: ~0.6 nM
- EC50 (read off the curve) [7]: ~0.6 nM
- EC50 (read off the curve) [8]: ~1 nM
- EC50 (read off the curve) [9]: ~1 nM
- IC50 (read off the curve) [13]: ~0.3 nM
B17: H-ABU 41 (antibody, V domains shown)
VL: B15 VL
VH: B15 VH with V5Q, R67K, T74K
notes: Humanized antibody

- IC50 (read off the curve) [13]: ~0.3 nM
B18: H-ABU 37 (antibody, V domains shown)
VH: B15 VH with T24A, S28T, I48M, A68V, L70M, V72R, A79V
VL: B15 VL
notes: Humanized antibody

- IC50 (read off the curve) [13]: ~0.3 nM
B19: H-ABU 38 (antibody, V domains shown)
VH: B15 VH with T24A, S28T, A79V
VL: B15 VL
notes: Humanized antibody
